In patent US20230365648A1 (BITTERROOT BIO, published 2023):
Positions count from the first letter of the chain named.

Assays:
Assay in all cases: BLI (Octet R8), construct captured on anti-human Fc sensor, CD47 in solution
[1] = biological target: T1, mouse CD47 (mouse, UniProt Q61735 19-140, limits assumed)
T1 construct: also called mouse CD47 protein
T1 sequence (looked up): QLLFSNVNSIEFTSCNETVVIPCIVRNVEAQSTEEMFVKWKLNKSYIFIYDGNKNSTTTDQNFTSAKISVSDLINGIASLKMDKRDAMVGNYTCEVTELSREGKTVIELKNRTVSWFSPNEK

[2] = biological target: T2, rhCD47-his (human CD47) (human, UniProt Q08722 19-139)
T2 construct: Soluble analyte in the Octet assay; not shown: his tag
T2 sequence (Q08722 19-139 limits assumed): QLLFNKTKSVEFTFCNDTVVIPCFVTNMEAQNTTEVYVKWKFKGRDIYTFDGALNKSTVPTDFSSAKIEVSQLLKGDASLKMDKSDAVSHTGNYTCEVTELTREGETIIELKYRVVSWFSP

[3] = biological target: T3, rat CD47 (rat, UniProt P97829 19-140, limits assumed)
T3 construct: also called rat CD47 protein
T3 sequence (looked up): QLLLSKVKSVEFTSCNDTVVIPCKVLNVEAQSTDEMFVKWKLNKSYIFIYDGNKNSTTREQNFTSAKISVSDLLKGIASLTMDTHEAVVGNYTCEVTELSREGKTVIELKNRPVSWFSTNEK

Measured: binding result

B1: Construct 50 (SIRPα fusion polypeptide SEQ ID NO: 10 construct without the YTE mutation, i.e. with the wild type IgG4 Fc domain) (Fc fusion)
chain: EEELQIIQPDKSVLVAAGETATLRCTITSLFPVGPIQWFRGAGPGRVLIYNQRQGPFPRVTTVSDTTKRNNMDFSIRIGNITPADAGTYYCIKFRKGSPDDVEFKSGAGTELSVRAKPSAAAPPCPPCPAPEFLGGPSVFLFPPKPKDTLMISRTPEVTCVVVDVSQEDPEVQFNWYVDGVEVHNAKTKPREEQFNSTYRVVSVLTVLHQDWLNGKEYKCKVSNKGLPSSIEKTISKAKGQPREPQVYTLPPSQEEMTKNQVSLTCLVKGFYPSDIAVEWESNGQPENNYKTTPPVLDSDGSFFLYSRLTVDKSRWQEGNVFSCSVMHEALHNHYTQKSLSLSLGK
notes: It is described as the same construct as Construct 67 without the YTE mutation
binds: all assays above

B2: Construct 67 (SIRPα fusion polypeptide of SEQ ID NO: 10, SIRPα domain of SEQ ID NO: 2 and IgG4 Fc domain with a YTE mutation) (Fc fusion)
chain: B1 chain with M151Y, S153T, T155E
binds: all assays above
